Molecular target: transferrin receptor 1 (mouse (endogenous in 4T1)) (UniProt Q62351)
Chain of UniProt Q62351 (Q62351 whole entry): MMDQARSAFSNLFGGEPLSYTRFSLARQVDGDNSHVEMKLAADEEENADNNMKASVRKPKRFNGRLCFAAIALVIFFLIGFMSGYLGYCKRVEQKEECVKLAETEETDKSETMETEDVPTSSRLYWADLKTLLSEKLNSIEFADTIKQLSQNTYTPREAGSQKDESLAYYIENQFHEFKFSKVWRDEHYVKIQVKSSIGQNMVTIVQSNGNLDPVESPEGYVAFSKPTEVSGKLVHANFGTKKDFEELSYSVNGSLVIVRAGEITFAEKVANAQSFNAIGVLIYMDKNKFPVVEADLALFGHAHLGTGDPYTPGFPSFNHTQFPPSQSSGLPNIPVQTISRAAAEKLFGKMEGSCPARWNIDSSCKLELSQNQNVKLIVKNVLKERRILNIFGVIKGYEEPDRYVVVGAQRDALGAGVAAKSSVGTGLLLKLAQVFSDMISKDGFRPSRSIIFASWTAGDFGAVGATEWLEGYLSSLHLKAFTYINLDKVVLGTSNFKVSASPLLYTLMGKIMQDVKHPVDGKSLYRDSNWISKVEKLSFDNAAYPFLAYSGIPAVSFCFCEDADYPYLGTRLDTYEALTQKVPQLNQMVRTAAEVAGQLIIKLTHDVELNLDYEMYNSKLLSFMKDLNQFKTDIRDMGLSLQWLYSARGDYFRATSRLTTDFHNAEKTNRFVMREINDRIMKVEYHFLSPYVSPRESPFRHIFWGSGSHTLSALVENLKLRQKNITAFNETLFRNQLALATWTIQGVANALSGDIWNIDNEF

decrease in FITC fluorescence accumulation (uptake, flow cytometry) in BSA-Man-Ft-FITC@Lap-treated 4T1 cells under pH 6.5 after pre-treatment with TfR1 antibody: 67%
mean fluorescence intensity of FITC in 4T1 cells (CLSM) treated with BSA-Man@Mn2+-Ft-FITC@Lap, pH 6.5 group against pH 7.4 group: 3 fold
Substance: ferritin (FITC-labelled, β-lapachone-loaded ferritin units, Ft-FITC@Lap) (from UniProt Q8MIP0 1-182; P02791 1-175) (natural protein)

From publication PMC9515186
